A word on the EC50: it is the concentration that produces a half-maximal response.

Experimental findings from patent US20200405868A1, “GEL-FORMING POLYPEPTIDES” (priority 2018, published 2020) are described below.

Data set [1] addresses melanocortin receptor 1 (MC1R) (Homo sapiens, UniProt Q01726). In words: MC1R cAMP assay (Discoverx), agonistic. In kind it is cell-based. As to the method:
The agonistic activities toward MC1R, MC4R, CRHR2, PTHR1, and OPRK1 were assyed with an MC1R cAMP assay, an MC4R cAMP assay, a CRHR2 cAMP assay, a PTHR1 cAMP assay and an OPRK1 cAMP assay from Discoverx Inc. (Fremont, Calif.), respectively. The antagonistic activities toward bradykinin receptor 2 (BDKRB2) and GnRH receptor (GnRHR or LHRHR) were assayed with a BDKRB2 arrestin assay and a GnRHR calcium flux assay from Discoverx, respectively.
For the analysis of Gs-coupled cAMP production, cAMP Hunter cell lines were expanded from freezer stocks, and cells were seeded in a total volume of 20 μL into white walled, 384-well microplates and incubated at 37 C for the appropriate time prior to testing. The cAMP modulation was determined using the DiscoverX HitHunter cAMP XS+ assay. For agonistic activity determination, cells were incubated with sample to induce response. Media was aspirated from cells and replaced with 15 μL 2:1 HBSS/10 mM Hepes: cAMP XS+ Ab reagent. Intermediate dilution of sample stocks was performed to generate 4× sample in assay buffer, and 5 μL of 4× sample was added to cells and incubated at 37 C or room temperature for 30 or 60 minutes. Vehicle concentration was 1%. The compound activity was analyzed using a CBIS data analysis suite (ChemInnovation, CA). For Gs-coupled agonistic assays, percentage activity is calculated using the following formula: % Activity=100%×(mean RLU of test sample−mean RLU of vehicle control)/(mean RLU of MAX control−mean RLU of vehicle control).
Background: cAMP levels reflect the balance of adenylyl cyclase and phosphodiesterase activity.

Data set [2] in a line: Compound gel-forming ability in water (visual inspection, tube tapping assay, tilted tube assay).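 On all read-outs here: peptides mixed with de-ionized water at about 22-25 °C, judged after 20 min by eye plus tube tapping (10 taps, moves counted) and 90° tilt mobility.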 The format is physicochemical. The conditions noted are these: for gel formation at 11% w/w: 11% w/w in water; for gel formation at 20% w/w: 20% w/w in water; for Physical property at 11% w/w: Table 1, 11% w/w in aqueous solution, room temperature; for gel formation in aqueous solution, 20% / propensity to form gels, wild-type counterparts, 20%: 20% w/w; for gel formation in aqueous solution, 6% / propensity to form gels, wild-type counterparts, 6%: 6% w/w; for gel formation at 6% w/w: 6% w/w in water.

Entries after “also recorded” stand apart in the source; their conditions may differ. Like-named read-outs stand apart in the source and are kept apart here. Where no end group is shown, it is not given here. [ ]: non-standard residue; d: D form.

Sequence of melanocortin receptor 1 (MC1R) (Q01726 whole entry): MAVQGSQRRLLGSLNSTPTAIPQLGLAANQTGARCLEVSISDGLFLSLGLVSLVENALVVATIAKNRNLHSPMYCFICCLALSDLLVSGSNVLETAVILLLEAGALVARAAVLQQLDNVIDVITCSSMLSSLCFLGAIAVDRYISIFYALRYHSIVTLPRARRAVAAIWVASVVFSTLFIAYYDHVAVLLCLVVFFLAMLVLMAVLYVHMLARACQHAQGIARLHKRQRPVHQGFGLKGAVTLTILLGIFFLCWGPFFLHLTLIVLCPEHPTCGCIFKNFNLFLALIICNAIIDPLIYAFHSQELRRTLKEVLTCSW

As for `CCCCCCCCCCCCCCCC(=O)N[C@@H](Cc1c[nH]cn1)C(=O)N[C@@H](CO)C(=O)N[C@@H](Cc1ccc(O)cc1)C(=O)N[C@@H](CO)C(=O)N[C@@H](CCCC)C(=O)N[C@@H](CCC(=O)O)C(=O)N[C@@H](Cc1c[nH]cn1)C(=O)N[C@H](Cc1ccccc1)C(=O)N[C@@H](CCCNC(=N)N)C(=O)N[C@@H](Cc1c[nH]c2ccccc12)C(=O)NCC(=O)N[C@@H](CCCCN)C(=O)N1CCC[C@H]1C(=O)N[C@H](C(N)=O)C(C)C` [SEQ ID NO:224, Pal-HSYS-Nle-EH-(D-Phe)-RWGKPV-NH2], in data set [1], the EC50 result is “subnanomolar” and the “Max Activity % of positive control” value was 120 % of positive control. For the same compound, the EC50 in data set [1] (read-out: EC50) was below 0.05 nM.
With `CCCCCCCCCCCCCCCC(=O)N[C@@H](Cc1c[nH]cn1)C(=O)N[C@@H](CO)C(=O)N[C@@H](Cc1ccc(O)cc1)C(=O)N[C@@H](CO)C(=O)N[C@@H](CCSC)C(=O)N[C@@H](CCC(=O)O)C(=O)N[C@@H](Cc1c[nH]cn1)C(=O)N[C@@H](Cc1ccccc1)C(=O)N[C@@H](CCCNC(=N)N)C(=O)N[C@@H](Cc1c[nH]c2ccccc12)C(=O)NCC(=O)N[C@@H](CCCCN)C(=O)N1CCC[C@H]1C(=O)N[C@H](C(=O)NCC(=O)N[C@@H](CCCCN)C(=O)N[C@@H](CCCCN)C(=O)N[C@@H](CCCNC(=N)N)C(=O)N[C@@H](CCCNC(=N)N)C(=O)N1CCC[C@H]1C(=O)N[C@H](C(=O)N[C@@H](CCCCN)C(=O)N[C@H](C(=O)N[C@@H](Cc1ccc(O)cc1)C(=O)N1CCC[C@H]1C(=O)O)C(C)C)C(C)C)C(C)C` [SEQ ID NO:226], the “gel formation in aqueous solution, 11%” value in data set [2] (Table 3, 11% w/w) was “SS (SS for semisolid gel)”. Also, in data set [2] (Table 5, 11% w/w), the “propensity to form gels, chimeric or mutated polypeptides, 11%” value is on record as “SS (An ability to form semisolid gel is represented by an SS)”. Further, in data set [1], the EC50 entry was “nanomolar” and the “Max Activity % of positive control” value is 115 % of positive control.
For “SYSMEHFRWGKPVGKKRRPVKVYP-OH [SEQ ID NO:33, reference compound]”, in data set [2], the “gel formation at 11% w/w” value is reported as “does not form gel”, the “gel formation at 20% w/w” value is “does not form gel” and the “Physical property at 11% w/w” value was “AS/IS”. Further, the “gel formation in aqueous solution, 11%” value in data set [2] (Table 3, 11% w/w) was “AS/IS (AS/IS for aqueous solution or insoluble)”. Also, in data set [2] (Table 3), the “gel formation in aqueous solution, 20%” value was “AS/IS (AS/IS for aqueous solution or insoluble)”. Further, the “propensity to form gels, wild-type counterparts, 11%” value in data set [2] (Table 5, 11% w/w) was “AS/IS”. Besides, the “propensity to form gels, wild-type counterparts, 20%” value in data set [2] (Table 5) is reported as “AS/IS”.
For the compound “VGVAPG-NH2 [SEQ ID NO:45, reference compound]”, the “Physical property at 11% w/w” value in data set [2] is “AS/IS”. Besides, the “gel formation in aqueous solution, 6%” value in data set [2] (Table 3) is on record as “AS/IS (AS/IS for aqueous solution or insoluble)”. In data set [2] (Table 3, 11% w/w), the “gel formation in aqueous solution, 11%” value is given as “AS/IS (AS/IS for aqueous solution or insoluble)”. In addition, the “propensity to form gels, wild-type counterparts, 6%” value (“propensity to form gels … 6%” for short) in data set [2] (Table 5) was “AS/IS”. Also, the “propensity to form gels, wild-type counterparts, 11%” value in data set [2] (Table 5, 11% w/w) was “AS/IS”.
For “VKVKVKVKV(D-Pro)PTKVKVKVKV-miniPEG-RPKPQQFFGLM-NH2 [SEQ ID NO:286]”, the “gel formation in aqueous solution, 6%” value in data set [2] (Table 3) was “AS/IS (AS/IS for aqueous solution or insoluble)”. The “gel formation in aqueous solution, 11%” value in data set [2] (Table 3, 11% w/w) was “AS/IS (AS/IS for aqueous solution or insoluble)”.
For “Y-(D-Ala)-GF(D-Leu)-NH2 [SEQ ID NO:22, reference compound]”, in data set [2], the “gel formation at 6% w/w” value is given as “do not form gels”, the “gel formation at 11% w/w” value is listed as “do not form gels” and the “Physical property at 11% w/w” value is “AS/IS”. Also, in data set [2] (Table 3), the “gel formation in aqueous solution, 6%” value is listed as “AS/IS (AS/IS for aqueous solution or insoluble)”. In addition, the “gel formation in aqueous solution, 11%” value in data set [2] (Table 3, 11% w/w) was “AS/IS (AS/IS for aqueous solution or insoluble)”. Moreover, in data set [2] (Table 5), the “propensity to form gels … 6%” value is reported as “AS/IS”. In addition, in data set [2] (Table 5, 11% w/w), the “propensity to form gels, wild-type counterparts, 11%” value was “AS/IS”.
As for “Y-(D-Met)-FHLMD-NH2 [SEQ ID NO:21, reference compound]”, in data set [2], the “gel formation at 6% w/w” value is reported as “do not form gels”, the “gel formation at 11% w/w” value is “do not form gels” and the “Physical property at 11% w/w” value is “AS/IS”. For the same compound, in data set [2] (Table 3), the “gel formation in aqueous solution, 6%” value is recorded as “AS/IS (AS/IS for aqueous solution or insoluble)”. In addition, the “gel formation in aqueous solution, 11%” value in data set [2] (Table 3, 11% w/w) was “AS/IS (AS/IS for aqueous solution or insoluble)”. Besides, the “propensity to form gels … 6%” value in data set [2] (Table 5) is reported as “AS/IS”. In addition, in data set [2] (Table 5, 11% w/w), the “propensity to form gels, wild-type counterparts, 11%” value was “AS/IS”.
On to “YADAIFTNSYRKVLGQLSARKLLQDIMSR-NH2 [SEQ ID NO:35, reference compound]”, for which, in data set [2], the “gel formation at 11% w/w” value is reported as “does not form gel”, the “gel formation at 20% w/w” value is on record as “does not form gel” and the “Physical property at 11% w/w” value is listed as “AS/IS”. For the same compound, the “gel formation in aqueous solution, 11%” value in data set [2] (Table 3, 11% w/w) is listed as “AS/IS (AS/IS for aqueous solution or insoluble)”. The “gel formation in aqueous solution, 20%” value in data set [2] (Table 3) is on record as “AS/IS (AS/IS for aqueous solution or insoluble)”. For the same compound, the “propensity to form gels, wild-type counterparts, 11%” value in data set [2] (Table 5, 11% w/w) is on record as “AS/IS”. In addition, the “propensity to form gels, wild-type counterparts, 20%” value in data set [2] (Table 5) is given as “AS/IS”.
For the compound “YIGSR-NH2 [SEQ ID NO:39, reference compound]”, the “Physical property at 11% w/w” value in data set [2] is recorded as “AS/IS”. Also, the “gel formation in aqueous solution, 11%” value in data set [2] (Table 3, 11% w/w) is “AS/IS (AS/IS for aqueous solution or insoluble)”. The “propensity to form gels, wild-type counterparts, 11%” value in data set [2] (Table 5, 11% w/w) is reported as “AS/IS”.
Consider “YNWNSFGLRF-NH2 [SEQ ID NO:6, reference compound]”, for which, in data set [2], the “gel formation at 6% w/w” value is recorded as “semisolid gel”, the “gel formation at 11% w/w” value is “form self-assembling gels; also recorded: semisolid gel” and the “Physical property at 11% w/w” value is “SS (SS for semisolid gel)”. For the same compound, the “gel formation in aqueous solution, 6%” value in data set [2] (Table 3) is reported as “SS (SS for semisolid gel)”. In addition, the “gel formation in aqueous solution, 11%” value in data set [2] (Table 3, 11% w/w) was “SS (SS for semisolid gel)”. Also, in data set [2] (Table 5), the “propensity to form gels … 6%” value is “SS (An ability to form semisolid gel is represented by an SS)”. The “propensity to form gels, wild-type counterparts, 11%” value in data set [2] (Table 5, 11% w/w) was “SS (An ability to form semisolid gel is represented by an SS)”.
In the case of “YRQSMNNFQGLRSFGCRFGTCTVQKLAHQIYQFTDKDKDNVAPRSKISPQGY-NH2 [SEQ ID NO:2, reference compound]”, in data set [2], the “Physical property at 11% w/w” value is recorded as “SS (SS for semisolid gel)”. Also, in data set [2] (Table 3), the “gel formation in aqueous solution, 6%” value is recorded as “AS/IS (AS/IS for aqueous solution or insoluble)”. Also, in data set [2] (Table 3, 11% w/w), the “gel formation in aqueous solution, 11%” value was “SS (SS for semisolid gel)”.
With “YRSRKYSSWY-NH2 [SEQ ID NO:46, reference compound]”, the “Physical property at 11% w/w” value in data set [2] is “AS/IS”. In addition, the “gel formation in aqueous solution, 11%” value in data set [2] (Table 3, 11% w/w) is given as “AS/IS (AS/IS for aqueous solution or insoluble)”. The “propensity to form gels, wild-type counterparts, 11%” value in data set [2] (Table 5, 11% w/w) is “AS/IS”.
Consider “YVMGHFRWDRF-NH2 [SEQ ID NO:64, reference compound]”, for which, in data set [2], the “gel formation at 6% w/w” value is “stay soluble” and the “gel formation at 11% w/w” value was “form self-assembling gels; also recorded: liquid gel”. In addition, the “gel formation in aqueous solution, 6%” value in data set [2] (Table 3) is listed as “AS/IS (AS/IS for aqueous solution or insoluble)”. Moreover, the “propensity to form gels … 6%” value in data set [2] (Table 5) is on record as “AS/IS”. Also, in data set [2] (selected concentration (i.e., at 30%, 20%, 11%, or 6% w/w)), the “gel formation at the selected concentration” value is reported as “only form aqueous solution or are insoluble”.
“[dF][dF]W[dR] [SEQ ID NO:7, reference compound]”: the “gel formation at 3% w/w” value in data set [2] (3% w/w in water) is recorded as “semisolid gel”. Also, in data set [2], the “gel formation at 6% w/w” value is reported as “semisolid gel”, the “gel formation at 11% w/w” value was “form self-assembling gels; also recorded: semisolid gel” and the “Physical property at 11% w/w” value is given as “SS (SS for semisolid gel)”. Moreover, the “gel formation in aqueous solution, 3%” value in data set [2] (Table 3, 3% w/w) is given as “SS (SS for semisolid gel)”. The “gel formation in aqueous solution, 6%” value in data set [2] (Table 3) is given as “SS (SS for semisolid gel)”. The “gel formation in aqueous solution, 11%” value in data set [2] (Table 3, 11% w/w) is given as “SS (SS for semisolid gel)”. In data set [2] (Table 5, 3% w/w), the “propensity to form gels, wild-type counterparts, 3%” value is recorded as “SS (An ability to form semisolid gel is represented by an SS)”. In data set [2] (Table 5), the “propensity to form gels … 6%” value is on record as “SS (An ability to form semisolid gel is represented by an SS)”. Moreover, the “propensity to form gels, wild-type counterparts, 11%” value in data set [2] (Table 5, 11% w/w) was “SS (An ability to form semisolid gel is represented by an SS)”.
For enfuvirtide, in data set [2], the “Physical property at 11% w/w” value was “AS/IS”.
Regarding “miniPEG-K(PAL)GCRFGTCTVQKLAHQIYQFTDKDVAPRSKISP(D-Gln)GY-NH2 [SEQ ID NO:48]”, in data set [2], the “gel formation at 11% w/w” value is reported as “semisolid gel” and the “Physical property at 11% w/w” value is “SS (SS for semisolid gel)”.
